# Measured values published in patent US20170247475A1 (Boehringer Ingelheim, published 2017).
# Where a chain is given by its changes, count along the chain named. Like-named read-outs stand apart in the source and are kept apart here.
# T1: recombinant mouse VEGF164 (mouse, UniProt Q00731-2 27-190)
# T1 construct: biotinylated in the mVEGFR2 AlphaScreen; also called rmVEGF164; mVEGF164
# T1 sequence (looked up): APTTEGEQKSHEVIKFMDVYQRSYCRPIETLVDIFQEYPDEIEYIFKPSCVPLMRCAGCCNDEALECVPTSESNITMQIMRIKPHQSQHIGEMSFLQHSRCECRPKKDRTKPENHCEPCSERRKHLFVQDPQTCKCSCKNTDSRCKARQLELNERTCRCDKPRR
# T2: recombinant human VEGF121 (human, UniProt P15692-9 27-147)
# T2 construct: also called rhVEGF121; hVEGF121
# T2 sequence (looked up): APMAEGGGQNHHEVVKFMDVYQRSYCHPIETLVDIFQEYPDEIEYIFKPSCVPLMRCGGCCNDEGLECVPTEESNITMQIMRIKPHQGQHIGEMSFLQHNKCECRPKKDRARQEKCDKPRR
# T3: human VEGF-D (human, UniProt O43915 93-201)
# T3 construct: also called hVEGF-D
# T3 sequence (looked up): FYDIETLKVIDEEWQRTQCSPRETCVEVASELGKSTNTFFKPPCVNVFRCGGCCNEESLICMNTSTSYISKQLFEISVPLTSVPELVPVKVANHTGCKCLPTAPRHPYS
# T4: human PIGF (human, UniProt P49763-2 21-149, limits assumed)
# T4 construct: also called hPIGF; PLGF
# T4 sequence (looked up): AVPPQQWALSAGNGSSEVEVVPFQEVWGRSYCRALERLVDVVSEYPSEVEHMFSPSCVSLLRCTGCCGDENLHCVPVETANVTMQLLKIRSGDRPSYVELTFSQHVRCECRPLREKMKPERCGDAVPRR
# T5: human VEGF-B (human, UniProt P49765-2 22-188, limits assumed)
# T5 construct: also called hVEGF-B
# T5 sequence (looked up): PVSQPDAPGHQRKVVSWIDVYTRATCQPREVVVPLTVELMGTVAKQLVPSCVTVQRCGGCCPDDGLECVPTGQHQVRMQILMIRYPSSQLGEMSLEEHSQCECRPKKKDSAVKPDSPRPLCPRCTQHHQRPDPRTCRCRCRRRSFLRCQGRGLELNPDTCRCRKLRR
# T6: human VEGF-C (human, UniProt P49767 103-227)
# T6 construct: also called hVEGF-C
# T6 sequence (looked up): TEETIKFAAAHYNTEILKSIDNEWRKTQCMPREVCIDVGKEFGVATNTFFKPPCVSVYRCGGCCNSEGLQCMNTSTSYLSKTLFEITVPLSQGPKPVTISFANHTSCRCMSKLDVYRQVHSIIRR
# T7: mAng2
# T7 construct: also called mouse Ang2
# T7 chain: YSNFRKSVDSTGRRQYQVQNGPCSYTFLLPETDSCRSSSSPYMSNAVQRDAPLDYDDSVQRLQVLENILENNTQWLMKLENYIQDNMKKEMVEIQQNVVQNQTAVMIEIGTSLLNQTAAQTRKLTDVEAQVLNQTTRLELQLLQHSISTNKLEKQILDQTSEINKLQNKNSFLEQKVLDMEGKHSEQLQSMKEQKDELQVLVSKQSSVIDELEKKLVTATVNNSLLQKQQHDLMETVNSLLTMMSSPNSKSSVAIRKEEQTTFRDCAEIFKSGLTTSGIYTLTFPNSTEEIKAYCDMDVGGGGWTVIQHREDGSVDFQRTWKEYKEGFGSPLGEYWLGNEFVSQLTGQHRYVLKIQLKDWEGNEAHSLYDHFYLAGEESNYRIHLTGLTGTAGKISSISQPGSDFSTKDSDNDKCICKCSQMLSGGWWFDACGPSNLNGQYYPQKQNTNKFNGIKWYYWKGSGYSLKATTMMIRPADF
# T8: hAng2
# T8 construct: also called human Ang2
# T8 chain: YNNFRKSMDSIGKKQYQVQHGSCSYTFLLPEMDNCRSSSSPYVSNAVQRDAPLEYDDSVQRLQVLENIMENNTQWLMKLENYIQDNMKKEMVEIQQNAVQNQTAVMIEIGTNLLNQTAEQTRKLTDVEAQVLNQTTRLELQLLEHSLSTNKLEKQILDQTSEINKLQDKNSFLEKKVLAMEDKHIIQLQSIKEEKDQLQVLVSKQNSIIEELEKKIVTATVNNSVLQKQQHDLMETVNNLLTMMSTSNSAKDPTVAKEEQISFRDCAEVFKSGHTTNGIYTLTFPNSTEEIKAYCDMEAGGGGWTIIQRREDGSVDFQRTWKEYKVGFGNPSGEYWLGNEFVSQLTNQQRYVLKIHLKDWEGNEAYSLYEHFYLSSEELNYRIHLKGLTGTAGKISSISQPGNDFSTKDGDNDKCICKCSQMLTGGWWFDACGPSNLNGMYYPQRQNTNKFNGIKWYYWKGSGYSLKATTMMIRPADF
# B1: VEGFBII23A06 (VHH)
# VHH: EVQLVESGGGLVQPGDSLKLSCAFSGRTFSSYSMGWFRQAQGKEREFVVAISSGGFIYDAVSLEGRFTISRDNTKNTVYLQTPSLKPEDTAVYYCAASRAYGSSRLRLADTYDYWGQGTQVTVSS
# notes: also called 23A6; VEGFBII23A6
# B2: VEGFBII24C04 (VHH)
# VHH: B1 VHH with A23V, F24A, F29S, F56Y, A60S, E64Q
# notes: also called VEGFBII24C4
# B3: 1D01 (VHH)
# VHH: EVQLVESGGGLVQAGGSLRLSCAASGFTFDDYALGWFRQAAGKEREGVSCIRCSDGSTYYADSVKGRFTISSDNAKNTVYLQMNSLKPEDTAVYYCAASIVPRSKLEPYEYDAWGQGTQVTVSS
# notes: also called 01D01
# B4: ANGBII00005 (VHH)
# bivalent VHH: EVQLVESGGGLVQAGGSLRLSCAASGFTLDDYAIGWFRQAPGKEREGVSSIRDNDGSTYYADSVKGRFTISSDNDKNTVYLQMNSLKPEDTAVYYCAAVPAGRLRFGEQWYPLYEYDAWGQGTLVTVSSGGGGSGGGGSGGGGSGGGGSGGGGSGGGGSGGGGSGGGGSEVQLVESGGGLVQAGGSLRLSCAASGFTLDDYAIGWFRQAPGKEREGVSSIRDNDGSTYYADSVKGRFTISSDNDKNTVYLQMNSLKPEDTAVYYCAAVPAGRLRFGEQWYPLYEYDAWGQGTLVTVSS
# notes: homodimeric anti-Ang2 VHH; also called 00027-40gs-00027
# How the values were obtained:
# [1] = target: T1, recombinant mouse VEGF164; assay: binding ELISA, coated rmVEGF164
# Method: Cross-reactivity to mouse VEGF164 is determined using a binding ELISA. […] Wells are blocked with a casein solution (1% in PBS). […] A mouse VEGF164 reactive mAb is included as positive control.
# [2] = target: T9, recombinant human VEGF165 (human, UniProt P15692-4 27-191); assay: ka1; SPR Biacore T100, hVEGF165 on chip, Two State Reaction model
# T9 construct: also called hVEGF165; rhVEGF165
# Method: (§1) Samples are injected for 2 min and allowed to dissociate up to 20 min at a flow rate of 45 μI/min. In between sample injections, the chip surface is regenerated with 100 mM HCl. HBS-EP+(Hepes buffer pH7.4+EDTA) is used as running buffer. Binding curves are fitted using a Two State Reaction model by Biacore T100 Evaluation Software v2.0.1.
# (§2) ^{(a)}Heterogeneous binding curve resulting in no 1:1 fit, curves are fitted using a Two State Reaction model by Biacore T100 Evaluation Software v2.0.1
# [3] = target: T9, recombinant human VEGF165; assay: hVEGF165/hVEGFR2-Fc competition AlphaScreen
# Method: (§3) Finally, streptavidin donor beads (20 μg/ml) are added and after 1 hour of incubation in the dark, fluorescence is measured on the Envision microplate reader.
# [4] = target: T9, recombinant human VEGF165; assay: Biacore, periplasmic extract on hVEGF165 chip
# Method: (§4) Dissociation rates of inhibitory VHHs are analyzed on Biacore (Biacore T100 instrument, GE Healthcare). HBS-EP+ buffer is used as running buffer and experiments are performed at 25° C. […] After immobilization, surfaces are deactivated with 10 min injection of 1M ethanolamine pH8.5. A reference surface is activated and deactivated with respectively EDC/NHS and ethanolamine. Periplasmic extracts of VHHs are injected at a 10-fold dilution in running buffer for 2 min at 45 μl/min and allowed to dissociate for 10 or 15 min. Between different samples, the surfaces are regenerated with regeneration buffer. Data are double referenced by subtraction of the curves on the reference channel and of a blank running buffer injection. […] is evaluated by fitting a two phase decay model in the Biacore T100 Evaluation software v2.0.1.
# Target sequence in this assay (P15692 other isoform, or with tags, fused parts or gaps limits assumed): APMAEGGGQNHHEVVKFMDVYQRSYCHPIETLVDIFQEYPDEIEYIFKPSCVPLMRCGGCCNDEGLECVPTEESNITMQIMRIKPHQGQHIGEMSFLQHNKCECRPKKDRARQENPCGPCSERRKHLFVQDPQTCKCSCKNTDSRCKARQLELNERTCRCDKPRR
# [5] = target: T2, recombinant human VEGF121; assay: binding ELISA, coated rhVEGF121
# Method: Binding to recombinant human VEGF121 is assessed via a solid phase binding ELISA. Briefly, recombinant human VEGF121 (R&D Systems, Minneapolis, Minn., USA) is coated overnight at 4° C. at 1 μg/mL in a 96-well MaxiSorp plate (Nunc, Wiesbaden, Germany). Wells are blocked with a casein solution (1% in PBS).
# [6] = target: T9, recombinant human VEGF165; assay: Biacore, periplasmic extract on hVEGF165 chip, two phase decay fit
# Method: as §4
# Target sequence in this assay (P15692 other isoform, or with tags, fused parts or gaps limits assumed): as above
# [7] = target: T9, recombinant human VEGF165; assay: hVEGF165/hVEGFR1-Fc competition AlphaScreen
# Method: as §3
# [8] = target: T9, recombinant human VEGF165; assay: hVEGF165/hVEGFR1-Fc competition ELISA
# [9] = target: T9, recombinant human VEGF165; assay: binding ELISA, coated rhVEGF165
# [10] = target: T9, recombinant human VEGF165; assay: SPR Biacore T100, hVEGF165 on chip, Two State Reaction model
# Method: as §1, §2
# VEGF = assay: cell-based or functional assay
# [11] = target: T9, recombinant human VEGF165; assay: hVEGF165/hVEGFR2-Fc competition ELISA
# human VEGF-D = target: T3, human VEGF-D; assay: solid phase binding ELISA
# Method: (§5) Binding to VEGFB, VEGFC, VEGFD and PIGF is assessed via a solid phase binding ELISA. In brief, VEGFB, VEGFC, VEGFD and PIGF (R&D Systems, Minneapolis, Minn., USA) are coated overnight at 4° C. at 1 μg/mL in a 96-well MaxiSorp plate (Nunc, Wiesbaden, Germany). Wells are blocked with a casein solution (1% in PBS). […] As positive controls serial dilutions of the appropriate receptors are taken along and detected with horseradish peroxidase (HRP)-conjugated goat anti-human IgG, Fc specific antibody (Jackson Immuno Research Laboratories Inc., West Grove, Pa., USA) and a subsequent enzymatic reaction in the presence of the substrate TMB (3,3′,5,5′-tetramentylbenzidine) (Pierce, Rockford, Ill., USA).
# human PIGF = target: T4, human PIGF; assay: solid phase binding ELISA
# Method: as §5
# human VEGF-B = target: T5, human VEGF-B; assay: solid phase binding ELISA
# Method: as §5
# human VEGF-C = target: T6, human VEGF-C; assay: solid phase binding ELISA
# Method: as §5
# [12] = target: T9, recombinant human VEGF165; assay: kd1; SPR Biacore T100, hVEGF165 on chip, Two State Reaction model
# Method: as §1, §2
# mAng2 [13] = target: T7, mAng2; assay: competition ELISA, blocking of mAng2 binding to mTie2
# cAng2 = target: T10, cAng2 (cynomolgus monkey); assay: competition ELISA, blocking of cAng2 binding to cTie2
# T10 construct: also called cyno Ang2
# hAng2 [14] = target: T8, hAng2; assay: competition ELISA, blocking of hAng2 binding to hTie2
# mAng2 [15] = target: T7, mAng2; assay: competition ELISA, blocking of mAng2 binding to mTie2
# hAng2 [16] = target: T8, hAng2; assay: competition ELISA, blocking of hAng2 binding to hTie2
Binder,binding result [1],kon [2] [M⁻¹ s⁻¹],% inhibition [3] [%],IC50 [3] [nM],Binding level (RU) [4] [RU],EC50 [5] [nM],% fast [6] [%],% inhibition [7] [%],IC50 [7] [nM],% inhibition [8] [%],IC50 [8] [nM],EC50 [9] [nM],Kd [10] [nM],kd2 [10] [s⁻¹],"% inhibition, VEGF HUVEC proliferation assay (VEGF) [%]","IC50 (nM), VEGF HUVEC proliferation assay (VEGF) [nM]",% inhibition [11] [%],IC50 [11] [nM],binding result (human VEGF-D),binding result (human PIGF),further results
B1,no binding (tested: 500 nM-32 pM),420000,100,0.25,547,0.928,13,46,0.4,55,0.9,0.531,0.7,0.0001,73,4.29,100,3,no binding (tested: 500 nM-32 pM),no binding (tested: 500 nM-32 pM),binding result (human VEGF-B): no binding (tested: 500 nM-32 pM); binding result (human VEGF-C): no binding (tested: 500 nM-32 pM); koff [12]: 0.057 s⁻¹
B2,no binding (tested: 500 nM-32 pM),320000,100,0.25,456,0.792,17,53,0.2,71,0.8,0.453,0.4,9.6e-05,79,3.8,100,2.5,no binding (tested: 500 nM-32 pM),no binding (tested: 500 nM-32 pM),binding result (human VEGF-B): no binding (tested: 500 nM-32 pM); binding result (human VEGF-C): no binding (tested: 500 nM-32 pM); koff [12]: 0.026 s⁻¹
B3,–,–,–,–,–,–,–,–,–,–,–,–,–,–,–,–,–,–,–,–,IC50 (read off the curve) (mAng2 [13]): ~20 nM; IC50 (read off the curve) (cAng2): ~8 nM; IC50 (read off the curve) (hAng2 [14]): ~10 nM
B4,–,–,–,–,–,–,–,–,–,–,–,–,–,–,–,–,–,–,–,–,IC50 (read off the curve) (mAng2 [15]): ~0.03 nM; IC50 (read off the curve) (hAng2 [16]): ~0.01 nM
